Measured values taken from publication PMC11363328, “Identification of Rocaglate Acyl Sulfamides as Selective Inhibitors of Glioblastoma Stem Cells”.

Tests used:
Conditions in all cases: protein: recombinant; single strand
eIF4A1 [1] = target: T1, eIF4A1 (UniProt P60842 1-406); experiment: fluorescence polarization, protein titration; 50 uM (-)-5, 1 mM ATP; EC50 for complex formation, range for all three compounds; FP: 14.4 mM HEPES-KOH pH 8, 108 mM NaCl, 1 mM MgCl2, 14.4% glycerol, 0.1% DMSO, 2 mM DTT, 1 mM ATP, 10 nM probe, room temperature, 10 min
eIF4A1 [2] = target: T1, eIF4A1; experiment: fluorescence polarization, protein titration; 50 uM (-)-20, 1 mM ATP; EC50 for complex formation, range for all three compounds; FP: 14.4 mM HEPES-KOH pH 8, 108 mM NaCl, 1 mM MgCl2, 14.4% glycerol, 0.1% DMSO, 2 mM DTT, 1 mM ATP, 10 nM probe, room temperature, 10 min
eIF4A1 [3] = target: T1, eIF4A1; experiment: fluorescence polarization, protein titration; 50 uM (-)-7, 1 mM ATP; EC50 for complex formation, range for all three compounds; FP: 14.4 mM HEPES-KOH pH 8, 108 mM NaCl, 1 mM MgCl2, 14.4% glycerol, 0.1% DMSO, 2 mM DTT, 1 mM ATP, 10 nM probe, room temperature, 10 min

Measured: apparent K (half saturation)

T1 sequence (P60842 whole entry): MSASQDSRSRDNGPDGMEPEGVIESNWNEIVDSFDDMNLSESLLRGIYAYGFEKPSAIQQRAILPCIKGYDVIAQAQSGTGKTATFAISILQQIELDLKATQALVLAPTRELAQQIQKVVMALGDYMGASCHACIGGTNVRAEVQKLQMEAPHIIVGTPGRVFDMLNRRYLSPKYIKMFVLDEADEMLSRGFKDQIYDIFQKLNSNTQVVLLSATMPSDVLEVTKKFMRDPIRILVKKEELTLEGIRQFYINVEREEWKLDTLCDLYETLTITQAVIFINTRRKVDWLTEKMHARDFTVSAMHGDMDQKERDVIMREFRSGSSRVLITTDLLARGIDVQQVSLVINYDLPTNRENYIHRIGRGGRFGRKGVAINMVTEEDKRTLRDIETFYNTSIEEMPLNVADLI

AGAGAGAGAGAGAGAG (ssRNA) [FAM-r(AG)8]
~245 nM: eIF4A1 [1] | eIF4A1 [2] | eIF4A1 [3]
